Target: Platelet-factor 4 (Human CXCL4) (human)
Experiment: cross-linking + AUC

- percent of PF4 present as tetramers: 81.2%
- stoichiometry N: 4
Substance: Platelet-factor 4 (Human CXCL4) (natural protein)

— article doi:10.1101/2025.05.15.25327633
